Test results from patent publication US6987169.

Target: rSK2 small conductance, calcium-activated potassium channel (rat), P70604
Sequence (P70604 whole entry): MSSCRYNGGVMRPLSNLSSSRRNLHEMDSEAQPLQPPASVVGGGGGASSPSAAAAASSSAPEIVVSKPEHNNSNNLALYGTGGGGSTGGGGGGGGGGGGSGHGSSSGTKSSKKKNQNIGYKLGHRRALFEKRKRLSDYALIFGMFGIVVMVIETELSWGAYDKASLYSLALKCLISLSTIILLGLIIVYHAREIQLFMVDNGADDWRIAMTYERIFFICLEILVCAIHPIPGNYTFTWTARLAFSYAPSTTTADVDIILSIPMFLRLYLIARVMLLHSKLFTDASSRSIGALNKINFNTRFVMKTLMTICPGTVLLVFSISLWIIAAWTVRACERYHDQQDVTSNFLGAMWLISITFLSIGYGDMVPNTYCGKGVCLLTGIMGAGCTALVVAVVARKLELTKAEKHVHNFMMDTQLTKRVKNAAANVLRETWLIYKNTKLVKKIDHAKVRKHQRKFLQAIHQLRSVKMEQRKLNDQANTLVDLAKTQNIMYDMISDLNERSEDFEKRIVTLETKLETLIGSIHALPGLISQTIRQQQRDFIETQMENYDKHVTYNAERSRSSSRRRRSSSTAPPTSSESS

CNCKAPETALCARRCQQH (modifications not checked) [apamin, P01500 28-45]
Kd: 63 µM
